In US7005413 (Amgen, dated 2006):
Changes are numbered by the printed parent chain. In names and notes the source's numbering stands.

B1: Rat OPG [22-401] produced in transgenic mice (receptor)
chain: ETFPPKYLHYDPETGRQLLCDKCAPGTYLKQHCTVRRKTLCVPCPDYSYTDSWHTSDECVYCSPVCKELQTVKQECNRTHNRVCECEEGRYLELEFCLKHRSCPPGLGVLQAGTPERNTVCKRCPDGFFSGETSSKAPCRKHTNCSSLGLLLIQKGNATHDNVCSGNREATQNCEIDVTLCEEAFFRFAVPTKIIPNWLSVLVDSLPGTKVNAESVERIKRRHSSQEQTFQLLKLWKHQNRDQEMVKKIIQDIDLCESSVQRHIGHANLTTEQLRILMESLPGKKISPDEIERTRKTCKPSEQLLKLLSLWRIKNGDQDTLKGLMYALKHLKAYHFPKTVTHSLRKTIRFLHSFTMYRLYQKLFLEMIGNQVQSVKISCL
notes: Expressed from the rat cDNA under a hepatocyte control element in transgenic mice; Analysed in liver extracts and serum; also called HE-OPG transgene product
B2: huOPG [22-401] (receptor)
chain: ETFPPKYLHYDEETSHQLLCDKCPPGTYLKQHCTAKWKSVCAPCPDHYYTDSWHTSDECLYCSPVCKELQYVKQECNRTHNRVCECKEGRYLEIEFCLKHRSCPPGFGVVQAGTPERNTVCKRCPDGFFSNETSSKAPCRKHTNCSVFGLLLTQKGNATHDNICSGNSESTQKCGIDVTLCEEAFFRFAVPTKFTPNWLSVLVDNLPGTKVNAESVERIKRQHSSQEQTFQLLKLWKHQNKAQDIVKKIIQDIDLCENSVQRHIGHANLTFEQLRSLMESLPGKKVGAEDIEKTIKACKPSDQILKLLSLWRIKNGDQDTLKGLMHALKHSKTYHFPKTVTQSLKKTIRFLHSFTMYKLYQKLFLEMIGNQVQSVKISCL
notes: Recombinant polypeptide from CHO cells
B3: muOPG [22-401] C195S (receptor)
chain: ETLLPKYLHYDPETGHQLLCDKCAPGTYLKQHCTVRRKTLCVPCPDHSYTDSWHTSDECVYCSPVCKELQSVKQECNRTHNRVCECEEGRYLEIEFCLKHRSCPPGSGVVQAGTPERNTVCKKCPDGFFSGETSSKAPCIKHTNCSTFGLLLIQKGNATHDNCCSGNREATQKSGIDVTLCEEAFFRFAVPTKIIPNWLSVLVDSLPGTKVNAESVERIKRRHSSQEQTFQLLKLWKHQNRDQEMVKKIIQDIDLCESSVQRHLGHSNLTTEQLLALMESLPGKKISPEEIERTRKTCKSSEQLLKLLSLWRIKNGDQDTLKGLMYALKHLKTSHFPKTVTHSLRKTMRFLHSFTMYRLYQKLFLEMIGNQVQSVKISCL
B4: muOPG [22-401] C202S (receptor)
chain: B3 chain with S174C, C181S
notes: Expressed in 293 cells from pcDNA3.1-muOPG
B5: muOPG [22-401] C319S (receptor)
chain: B3 chain with S174C, C298S
notes: as for B4
B6: muOPG [22-401] C277S (receptor)
chain: B3 chain with S174C, C256S
notes: as for B4
B7: muOPG [22-401] C400S (receptor)
chain: B3 chain with S174C, C379S
notes: as for B4
B8: muOPG [22-212] (receptor)
chain: ETLLPKYLHYDPETGHQLLCDKCAPGTYLKQHCTVRRKTLCVPCPDHSYTDSWHTSDECVYCSPVCKELQSVKQECNRTHNRVCECEEGRYLEIEFCLKHRSCPPGSGVVQAGTPERNTVCKKCPDGFFSGETSSKAPCIKHTNCSTFGLLLIQKGNATHDNCCSGNREATQKCGIDVTLCEEAFFRFAVP
notes: also called CT212
B9: muOPG [22-200] (receptor)
chain: ETLLPKYLHYDPETGHQLLCDKCAPGTYLKQHCTVRRKTLCVPCPDHSYTDSWHTSDECVYCSPVCKELQSVKQECNRTHNRVCECEEGRYLEIEFCLKHRSCPPGSGVVQAGTPERNTVCKKCPDGFFSGETSSKAPCIKHTNCSTFGLLLIQKGNATHDNCCSGNREATQKCGIDVT
notes: C-terminal truncation ending at threonine 200, expressed in 293 cells; also called CT 200

Molecular target: the molecule itself
Test: self-association; nonreducing SDS gels

Binding result, binds:
B1
B2

Molecular target: the molecule itself
Test: homodimerization; non-reducing SDS-PAGE and western blot; the number is the monomer share
Protocol: The biological activity of each protein was assessed the in vitro osteoclast forming assay described in example 11. Conditioned media from each transfectant was analysed by non-reducing SDS-PAGE and western blotting with anti-OPG antibodies.

Percent monomeric, > 90%:
B3
B4
B5
B6
B7

Molecular target: the molecule itself
Test: homodimerization; non-reducing SDS-PAGE and western blot with anti-OPG antibodies
Protocol: Each resulting muOPG-CT plasmid containing the appropriate truncation was then transfected into human 293 cells, the mutant OPG-Fc fusion protein purified from conditioned media as described above. The biological activity of each protein was assessed the in vitro osteoclast forming assay described in example 11. The conditioned medias were also analysed by non-reducing SDS-PAGE and western blotting using anti-OPG antibodies.

Binding result, no binding:
B8
B9
